Measured values taken from US9187525B2, “Methods of treating ophthalmic diseases using NPR-B agonists” (Shire Orphan Therapies GmbH, dated 2015).
Numbered stars: 1 amine (or outer) side, 2 acyl side, 3 side chain; on linkers, the order of the positions; unused ones are H or OH. Square brackets hold non-standard residues; d marks the D form. Ends that are not written are not given here. * marks the point of attachment. ξ: configuration not given here. Apc(Ae) = 4-amino-1-(2-amino-ethyl)-piperidine-4-carboxylic acid, O=C(C1(N[*:1])CCN(CCN[*:3])CC1)[*:2]; Apc(Et) = 4-amino-1-ethyl-piperidine-4-carboxylic acid, CCN1CCC(N[*:1])(C(=O)[*:2])CC1; Apc(Me) = 4-amino-1-methyl-piperidine-4-carboxylic acid, CN1CCC(N[*:1])(C(=O)[*:2])CC1; Pro(trans-4-NH2) = O=C([C@@H]1C[C@@H](N[*:3])CN1[*:1])[*:2]; Sni = (S)-nipecotic acid, O=C([C@H]1CCCN([*:1])C1)[*:2]; Eat = 2,3-dihydro-1H-indole-2-carboxylic acid; Oic = O=C(O)[C@@H]1C[C@@H]2CCCC[C@@H]2N1; NMeR = CN[C@@H](CCCNC(=N)N)C(=O)O; dDap(Me2) = CN(C)C[C@@H](N)C(=O)O; Hyp = O=C(O)[C@@H]1C[C@@H](O)CN1; Tic = O=C(O)[C@@H]1Cc2ccccc2CN1; NMeL = CN[C@@H](CC(C)C)C(=O)O; AR‑201‑68 = not defined here; AR‑201‑69 = not defined here; AR‑201‑72 = not defined here; AR‑201‑73 = not defined here; ξαMeL = CC(C)CC(C)(N)C(=O)O; Octanoyl = CCCCCCCC(=O)*; Thz = O=C(O)[C@@H]1CSCN1; Aze = O=C(O)[C@@H]1CCN1; Deg = CCC(N)(CC)C(=O)O; Nbt = 4-butyl-thiazole; Sbt = 5-butyl-thiazole; Aib = CC(C)(N)C(=O)O

T1: natriuretic peptide receptor-B (human)
T1 chain: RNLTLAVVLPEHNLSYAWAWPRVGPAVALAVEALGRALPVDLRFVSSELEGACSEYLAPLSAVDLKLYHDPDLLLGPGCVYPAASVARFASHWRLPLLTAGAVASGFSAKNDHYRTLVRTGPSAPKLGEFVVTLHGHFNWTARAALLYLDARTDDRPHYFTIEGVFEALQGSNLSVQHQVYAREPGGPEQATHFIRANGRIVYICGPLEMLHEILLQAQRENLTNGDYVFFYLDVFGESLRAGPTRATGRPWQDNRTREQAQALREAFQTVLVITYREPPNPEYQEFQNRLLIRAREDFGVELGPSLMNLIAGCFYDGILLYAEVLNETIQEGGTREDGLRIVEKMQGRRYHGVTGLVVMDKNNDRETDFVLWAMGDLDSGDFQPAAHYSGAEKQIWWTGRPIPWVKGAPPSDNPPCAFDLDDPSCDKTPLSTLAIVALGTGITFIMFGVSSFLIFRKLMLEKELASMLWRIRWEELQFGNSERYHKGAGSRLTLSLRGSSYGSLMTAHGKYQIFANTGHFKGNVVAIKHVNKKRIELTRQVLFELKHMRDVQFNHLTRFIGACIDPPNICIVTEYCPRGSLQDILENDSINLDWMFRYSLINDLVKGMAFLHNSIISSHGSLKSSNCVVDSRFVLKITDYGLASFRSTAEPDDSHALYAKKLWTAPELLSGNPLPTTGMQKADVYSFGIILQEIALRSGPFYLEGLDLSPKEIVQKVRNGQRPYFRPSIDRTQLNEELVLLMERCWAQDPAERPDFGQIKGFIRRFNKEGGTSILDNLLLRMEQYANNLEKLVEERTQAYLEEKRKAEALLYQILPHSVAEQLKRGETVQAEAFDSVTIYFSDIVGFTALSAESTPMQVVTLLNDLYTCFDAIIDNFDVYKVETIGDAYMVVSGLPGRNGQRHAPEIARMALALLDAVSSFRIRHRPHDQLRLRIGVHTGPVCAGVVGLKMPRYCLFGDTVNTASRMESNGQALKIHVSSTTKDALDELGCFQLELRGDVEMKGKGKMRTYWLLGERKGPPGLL

B1: JAL-1375 (peptide)
peptide: [AR‑201‑69]F[dL]L[Hyp][NMeL]DRI-NH2
modifications: reading uncertain; also: printed as (AR-201-69)-Phe-leu-Leu-Hyp-Nml-Asp-Arg-Ile-NH2
B2: JAL-1376 (peptide)
peptide: [AR‑201‑72]F[dL]L[Hyp][NMeL]DRI-NH2
modifications: reading uncertain; also: printed as (AR-201-72)-Phe-leu-Leu-Hyp-Nml-Asp-Arg-Ile-NH2
B3: JAL-1377 (peptide)
peptide: [AR‑201‑72]F[dR]L[Hyp][NMeL]DRI-NH2
modifications: reading uncertain; also: printed as (AR-201-72)-Phe-arg-Leu-Hyp-Nml-Asp-Arg-Ile-NH2
B4: JAL-1378 (peptide)
peptide: [AR‑201‑73]F[dL]L[Hyp][NMeL]DRI-NH2
modifications: reading uncertain; also: printed as (AR-201-73)-Phe-leu-Leu-Hyp-Nml-Asp-Arg-Ile-NH2
B5: JAL-1379 (peptide)
peptide: [AR‑201‑73]F[dR]L[Hyp][NMeL]DRI-NH2
modifications: reading uncertain; also: printed as (AR-201-73)-Phe-arg-Leu-Hyp-Nml-Asp-Arg-Ile-NH2
B6: JAL-1380 (peptide)
peptide: [AR‑201‑68]F[dL]L[Hyp][NMeL]DRI-NH2
modifications: reading uncertain; also: printed as (AR-201-68)-Phe-leu-Leu-Hyp-Nml-Asp-Arg-Ile-NH2
B7: JAL-1381 (peptide)
peptide: [AR‑201‑68]F[dR]L[Hyp][NMeL]DRI-NH2
modifications: reading uncertain; also: printed as (AR-201-68)-Phe-arg-Leu-Hyp-Nml-Asp-Arg-Ile-NH2
B8: JAL-1382 (peptide)
peptide: Sbt-[Sni]F[dL]L[Hyp][NMeL]DRI-NH2
B9: JAL-0650 (peptide)
peptide: XXFGLKLDRI
HELM: PEPTIDE1{[CCCCCC(=O)[*:2]].[O=C(Cc1ccc(N[*:1])cc1)[*:2]].F.G.L.K.L.D.R.I.[am]}$$$$V2.0
SMILES: CCCCCC(=O)Nc1ccc(CC(=O)N[C@@H](Cc2ccccc2)C(=O)NCC(=O)N[C@@H](CC(C)C)C(=O)N[C@@H](CCCCN)C(=O)N[C@@H](CC(C)C)C(=O)N[C@@H](CC(=O)O)C(=O)N[C@@H](CCCNC(=N)N)C(=O)N[C@H](C(N)=O)[C@@H](C)CC)cc1
B10: JAL-1383 (peptide)
peptide: Nbt-[Sni]F[dL]L[Hyp][NMeL]DRI-NH2
B11: JAL-1386 (peptide)
peptide: Octanoyl-[dA]F[dL]L[Hyp][Oic]DRI-NH2
B12: JAL-1387 (peptide)
peptide: Octanoyl-[dA]F[dR]L[Hyp]PDRI-NH2
B13: JAL-1393 (peptide)
peptide: Octanoyl-[dA]F[dR]L[Hyp][Aze]DRI-NH2
B14: JAL-1394 (peptide)
peptide: Octanoyl-[dA]F[dR]L[Hyp][Eat]DRI-NH2
B15: JAL-1395 (peptide)
peptide: Octanoyl-[dA]F[dR]L[Hyp][Thz]DRI-NH2
B16: JAL-1396 (peptide)
peptide: Octanoyl-[dA]F[dR]L[Hyp][Tic]DRI-NH2
B17: JAL-1398 (peptide)
peptide: Octanoyl-[Sni]F[dL]L[Hyp][NMeL]VRI-NH2
B18: JAL-1399 (peptide)
peptide: Octanoyl-[Sni]F[dL]L[Hyp][NMeL]VRI-NH2
B19: JAL-1400 (peptide)
peptide: Octanoyl-[Sni]F[dDap(Me2)]L[Hyp][NMeL]VRI-NH2
B20: JAL-0651 (peptide)
peptide: XXFGLKLDRI
HELM: PEPTIDE1{[CCCCCC(=O)[*:2]].[O=C(C1CCN([*:1])CC1)[*:2]].F.G.L.K.L.D.R.I.[am]}$$$$V2.0
SMILES: CCCCCC(=O)N1CCC(C(=O)N[C@@H](Cc2ccccc2)C(=O)NCC(=O)N[C@@H](CC(C)C)C(=O)N[C@@H](CCCCN)C(=O)N[C@@H](CC(C)C)C(=O)N[C@@H](CC(=O)O)C(=O)N[C@@H](CCCNC(=N)N)C(=O)N[C@H](C(N)=O)[C@@H](C)CC)CC1
B21: JAL-1401 (peptide)
peptide: Octanoyl-[Sni]F[dL]L[Pro(trans-4-NH2)][NMeL]VRI-NH2
B22: JAL-1402 (peptide)
peptide: Octanoyl-[Sni]F[dDap(Me2)]L[Hyp][NMeL]VRI-NH2
B23: JAL-1403 (peptide)
peptide: Octanoyl-[Sni]F[dDap(Me2)]L[Pro(trans-4-NH2)][NMeL]VRI-NH2
B24: JAL-1404 (peptide)
peptide: Octanoyl-[Sni]F[dL]L[Pro(trans-4-NH2)][NMeL]VRI-NH2
B25: JAL-1405 (peptide)
peptide: Octanoyl-[Sni]F[dDap(Me2)]L[Pro(trans-4-NH2)][NMeL]VRI-NH2
B26: JAL-1406 (peptide)
peptide: Octanoyl-[dA]F[Apc(Me)]M[dE]L[Hyp][NMeL]DRI-NH2
B27: JAL-1407 (peptide)
peptide: Octanoyl-[dA]F[Apc(Et)]E[dT]L[Hyp][NMeL]DRI-NH2
B28: JAL-1408 (peptide)
peptide: Octanoyl-[dA]F[Apc(Ae)]A[dE]L[Hyp][NMeL]DRI-NH2
B29: JAL-1413 (peptide)
peptide: Octanoyl-[dA]F[dL]L[Hyp][NMeL]DR[Aib]-NH2
B30: JAL-1414 (peptide)
peptide: Octanoyl-AFLL[Hyp][NMeL]DR[ξαMeL]-NH2
modifications: also: lower-case ala, leu: meaning not given here
B31: JAL-0652 (peptide)
peptide: XXFGLKLDRI
HELM: PEPTIDE1{[CCCCCC(=O)[*:2]].[O=C(Cn1cccc(N[*:1])c1=O)[*:2]].F.G.L.K.L.D.R.I.[am]}$$$$V2.0
SMILES: CCCCCC(=O)Nc1cccn(CC(=O)N[C@@H](Cc2ccccc2)C(=O)NCC(=O)N[C@@H](CC(C)C)C(=O)N[C@@H](CCCCN)C(=O)N[C@@H](CC(C)C)C(=O)N[C@@H](CC(=O)O)C(=O)N[C@@H](CCCNC(=N)N)C(=O)N[C@H](C(N)=O)[C@@H](C)CC)c1=O
B32: JAL-1416 (peptide)
peptide: Octanoyl-AFLL[Hyp][NMeL]DR[Deg]-NH2
modifications: also: lower-case ala, leu: meaning not given here
B33: JAL-1417 (peptide)
peptide: Octanoyl-AFLL[Hyp][NMeL]D[NMeR]I-NH2
modifications: also: lower-case ala, leu: meaning not given here
B34: JAL-1418 (peptide)
peptide: Octanoyl-AFLL[Hyp][NMeL]DPI-NH2
modifications: also: lower-case ala, leu: meaning not given here

Target: T1, natriuretic peptide receptor-B
Assay: cell-based or functional assay

Binder | EC50 group, cGMP in GTM-3 cells [µM]
B1 | ≤ 5
B2 | ≤ 15
B3 | ≤ 15
B4 | ≤ 5
B5 | ≤ 5
B6 | ≤ 1
B7 | ≤ 5
B8 | ≤ 1
B9 | ≤ 15
B10 | ≤ 5
B11 | ≤ 5
B12 | ≤ 15
B13 | ≤ 15
B14 | ≤ 15
B15 | ≤ 15
B16 | ≤ 5
B17 | ≤ 1

Binder | EC50 group, cGMP in GTM-3 cells [µM]
B18 | ≤ 5
B19 | ≤ 15
B20 | ≤ 15
B21 | ≤ 1
B22 | ≤ 5
B23 | ≤ 1
B24 | ≤ 5
B25 | ≤ 1
B26 | ≤ 1
B27 | ≤ 1
B28 | ≤ 5
B29 | ≤ 5
B30 | ≤ 1
B31 | ≤ 15
B32 | ≤ 1
B33 | ≤ 1
B34 | ≤ 5
